Source: patent publication US20220389097A1 (Genentech, published 2022)
Substitutions are numbered along the chain they refer to. Names and notes keep the numbering of the source. One block for each binder: values may come before it. Where no end group is shown, it is not given here.

Legend:
[1] = biological target: T1, cynomolgus TREM2 stalk antigen (cynomolgus monkey, UniProt A0A2K5UY34 159-204, not fully specified); assay: SPR (Biacore T200), 37 C; TREM2 stalk antigen on anti-human IgG1 Fc chip, antibody in solution
T1 construct: domain: stalk
T1 chain: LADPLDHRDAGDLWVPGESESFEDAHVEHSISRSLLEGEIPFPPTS
Description: (§1) Forty-six rat anti-human antibodies were tested for binding affinity to the hTREM2 and cynomolgus TREM2 stalk. Antibody binding affinities for hTREM2 stalk and cynomolgus TREM2 stalk were measured by surface plasmon resonance (SPR) using a Biacore™ T200 apparatus. TREM2 stalk antigens (human or cynomolgus) were immobilized on anti-human IgG1 Fc Biacore™ chips and anti-TREM2 antibody clones were bound to immobilized TREM2 at 37° C. Binding affinities, KD (nM) were measured and recorded.
(§2) Several antibodies were selected for binding measurements against cynomolgus TREM2 stalk. […] These four antibodies are referred to collectively below as the “3.10C2 group” of antibodies.

[2] = biological target: T2, hTREM2 stalk antigen (human, UniProt Q9NZC2 129-174); assay: as above
T2 construct: also called human TREM2 stalk
T2 chain: T1 chain with V15F
Description: as §1, §2

[3] = biological target: T3, human TREM2 on cells (human, UniProt Q9NZC2 19-230); assay: cell-based or functional assay
T3 sequence: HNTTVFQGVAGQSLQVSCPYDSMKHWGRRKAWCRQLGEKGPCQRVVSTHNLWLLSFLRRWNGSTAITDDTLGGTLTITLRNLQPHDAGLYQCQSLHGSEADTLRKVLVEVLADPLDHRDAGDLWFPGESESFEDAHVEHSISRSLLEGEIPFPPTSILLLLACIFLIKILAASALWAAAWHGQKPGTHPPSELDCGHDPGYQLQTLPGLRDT

[4] = biological target: T3, human TREM2 on cells; assay: cell-based or functional assay; remark: listed apart in the source
[5] = biological target: T4, TREM2 peptide residues 148 to 165 (human); assay: crystal structure of the complex
T4 construct: Peptide of the crystal structures
T4 peptide: ESFEDAHVEHSISRSLLE

[6] = biological target: T5, soluble human TREM2 (sTREM2) (human, UniProt Q9NZC2 19-157); assay: sandwich ELISA: antibody coated as capture, sTREM2 from BMDM supernatant, biotinylated 3.17A9 detection
T5 construct: also called soluble TREM2; TREM2 ectodomain
T5 sequence: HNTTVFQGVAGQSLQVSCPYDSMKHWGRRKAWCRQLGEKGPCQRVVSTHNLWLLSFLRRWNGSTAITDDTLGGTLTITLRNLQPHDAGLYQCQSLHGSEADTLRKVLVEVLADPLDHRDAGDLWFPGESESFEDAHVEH
Description: A human TREM2 ELISA assay was used to measure binding of more than forty antibodies to soluble TREM2 (sTREM2) as follows: test anti-hTREM2 antibodies were coated onto plate wells as capture reagents and a biotinylated IgV-reactive monoclonal antibody, 3.17A9, was used as the detection reagent. Antibody 1.16B8 was used as a control antibody to establish the standard for sTREM2 binding. Plates coated with test or control antibody were incubated with diluted culture supernatant from bone marrow-derived macrophage (BMDM) cultures from transgenic mice expressing hTREM2. sTREM2 is constitutively produced by the BMDM cultures expressing hTREM2 and shed into the culture supernatant. Measurements were recorded at 450 nm for detection and 570 nm for background. The 3.17A9/1.16B8 antibody pair was selected over reagents provided in the R&D Systems kit as the commercial reagents were not compatible with sTREM2 detection of some of the antibodies tested. Control antibody 1.16B8 light chain sequence is shown in SEQ ID NO: 170, and its heavy chain sequence is shown in SEQ ID NO: 171.

[7] = biological target: T6, soluble monomeric human TREM2 (human, UniProt Q9NZC2 19-174, limits assumed); assay: SPR (Biacore 8K) at 37 C, mutant IgG captured on anti-human Fab chip, soluble monomeric TREM2 as analyte, off-rate screen
T6 construct: Not the same as shed sTREM2; also called soluble monomeric TREM2
T6 sequence: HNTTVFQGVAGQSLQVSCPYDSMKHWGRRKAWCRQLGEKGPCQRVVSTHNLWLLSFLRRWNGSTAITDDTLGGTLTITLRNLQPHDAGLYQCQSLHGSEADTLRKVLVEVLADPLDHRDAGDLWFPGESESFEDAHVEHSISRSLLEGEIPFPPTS

[8] = biological target: T7, 155-169 (also: biotinylated (site not given here)); assay: ELISA: biotinylated peptide captured on streptavidin plate, antibody detected with anti-mouse IgG-HRP
T7 construct: member of the group m13
T7 peptide: VEHSISRSLLEGEIP
Text: (§3) The antibody epitopes were mapped to the stalk region of human TREM2 using enzyme-linked immunosorbent assay (ELISA). Overlapping biotinylated peptides were captured in ELISA plates coated with streptavidin. The binding of antibodies to peptides was detected with an anti-mouse IgG conjugated to horseradish peroxidase.

[9] = biological target: T8, hTREM2 stalk peptide residues 129-175 (human, biotinylated); assay: as above
T8 construct: also called human TREM2 stalk peptide
T8 peptide: T1 chain with V15F
Text: as §3

[10] = biological target: T9, 154-164 (also: biotinylated (site not given here)); assay: as above
T9 construct: member of the group m13; also called hTREM2 stalk 154-164
T9 peptide: HVEHSISRSLL
Text: as §3

[11] = biological target: T10, 159-175 (also: biotinylated (site not given here)); assay: as above
T10 construct: member of the group m13
T10 peptide: ISRSLLEGEIPFPPTSI
Text: as §3

[12] = biological target: T11, 139-158 (biotinylated (site not given)); assay: as above
T11 construct: member of the group m13
T11 peptide: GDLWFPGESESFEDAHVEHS
Text: as §3

[13] = biological target: T12, hTREM2 stalk peptide 146-161 (human, also: biotinylated (site not given here)); assay: as above
T12 peptide: ESESFEDAHVEHSISR
Text: as §3

[14] = biological target: T13, hTREM2 stalk peptide 151-165 (human, also: biotinylated (position not given here)); assay: as above
T13 peptide: EDAHVEHSISRSLLE
Text: as §3

[15] = biological target: T14, 152-161 (also: biotinylated (site not given here)); assay: as above
T14 construct: member of the group m13
T14 peptide: DAHVEHSISR
Text: as §3

[16] = biological target: T15, 129-148 (biotinylated (site not given)); assay: as above
T15 construct: member of the group m13
T15 peptide: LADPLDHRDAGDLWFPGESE
Text: as §3

[17] = biological target: T16, hTREM2 stalk peptide 146-169 (human, biotinylated); assay: as above
T16 peptide: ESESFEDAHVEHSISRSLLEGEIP
Text: as §3

[18] = biological target: T17, hTREM2 stalk peptide 149-168 (human, biotinylated); assay: as above
T17 peptide: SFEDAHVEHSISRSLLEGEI
Text: as §3

B1: 3.27H7 (rat anti-human TREM2 antibody) (antibody, V domains shown)
VH: EVQLVETGGSLVQPGGSLKLTCATSGFPFSNVWLHWIRRSPEKQLEWVAQIKARSDNYATYYAESVKGRFIVSRDDSKTTIYLQMNNLKEEDTAIYYCTGLDYWGQGVMVTVSS
VL: DVVLTQAPLSVSVTPGESASISCRSSRSLLTSKGITSLYWYLQKPGMSPHLLIYRMSNLASGIPDRFSGSGSETDFTLKISEVEPEDVGVYYCAQFLVYPYTFGAGTKLELK
notes: Whole IgG
Kd [1]: 260 pM | Kd [2]: 220 pM

B5: T93H (antibody, V domains shown)
VH: EVQLVETGGSLVQPGKSLKLTCATSGFPFSNVWMHWVRQSPEKQLEWIAHIKAKSDNYATYYAESVKGRFTISRDDSKTSIYLQMNSLKEDDTAIYYCHGLDYWGQGVMVTVSS
VL: DTVLTQAPLSLSVTPGESASISCRSSKSLLGVRDITSLYWYLQKPGKSPQLLIYRMSNLASGVPDRFSGSGSETDFTLKISEVETEDVGVYYCAQFLRYPYTFGPGTKLELK
fold improvement (lower dissociation rate kd) relative to wild-type 3.10C2 [7]: 1.4 fold

B6: 3.18E5 (rat anti-human TREM2 antibody) (antibody, IgG2a, V domains shown)
VH: B5 VH with S80T, D91A, H99T
VL: B5 VL with L11V, S26N, V32I
notes: Whole IgG
Kd [1]: 300 pM | Kd [2]: 260 pM | A620 absorbance (ELISA) [8]: 0.14 A620 | A620 absorbance (ELISA) [9]: 1.65 A620 | A620 absorbance (ELISA) [10]: 0.4 A620 | A620 absorbance (ELISA) [11]: 0.07 A620 | A620 absorbance (ELISA) [12]: 0.51 A620 | A620 absorbance (ELISA) [13]: 2.89 A620 | A620 absorbance (ELISA) [14]: 2.42 A620 | A620 absorbance (ELISA) [15]: 0.15 A620 | A620 absorbance (ELISA) [16]: 0.28 A620 | A620 absorbance (ELISA) [17]: 1.48 A620 | A620 absorbance (ELISA) [18]: 1.46 A620

B7: T93E (antibody, V domains shown)
VH: B5 VH with H99E
VL: B5 VL
fold improvement (lower dissociation rate kd) relative to wild-type 3.10C2 [7]: 2 fold

B8: 3.10C2 (rat anti-human TREM2 antibody) (antibody, V domains shown)
VH: B5 VH with H99T
VL: B5 VL
notes: Whole IgG with rat variable regions; also called clone 3.10C2
Kd [1]: 250 pM | Kd [2]: 240 pM | A620 absorbance (ELISA) [8]: 0.13 A620 | A620 absorbance (ELISA) [9]: 1.91 A620 | A620 absorbance (ELISA) [10]: 0.39 A620 | A620 absorbance (ELISA) [11]: 0.07 A620 | A620 absorbance (ELISA) [12]: 0.37 A620 | A620 absorbance (ELISA) [13]: 2.95 A620 | A620 absorbance (ELISA) [14]: 2.52 A620 | A620 absorbance (ELISA) [15]: 0.12 A620 | A620 absorbance (ELISA) [16]: 0.19 A620 | A620 absorbance (ELISA) [17]: 1.65 A620 | A620 absorbance (ELISA) [18]: 2.16 A620

B9: 3.50G1 (rat anti-human TREM2 antibody) (antibody, IgG2a, V domains shown)
VH: B5 VH with E90D, H99T
VL: B5 VL with L11V, S26N, V32I, Y41F, K112Q
notes: Whole IgG
Kd [1]: 570 pM | Kd [2]: 610 pM | A620 absorbance (ELISA) [8]: 0.13 A620 | A620 absorbance (ELISA) [9]: 2.13 A620 | A620 absorbance (ELISA) [10]: 0.26 A620 | A620 absorbance (ELISA) [11]: 0.08 A620 | A620 absorbance (ELISA) [12]: 0.43 A620 | A620 absorbance (ELISA) [13]: 2.52 A620 | A620 absorbance (ELISA) [14]: 2.32 A620 | A620 absorbance (ELISA) [15]: 0.14 A620 | A620 absorbance (ELISA) [16]: 0.19 A620 | A620 absorbance (ELISA) [17]: 1.88 A620 | A620 absorbance (ELISA) [18]: 1.28 A620

Further lines, with some results ahead:

EC50, Jurkat NFAT luciferase reporter cells [3]: 0.0178 µg/mL | IC50, TREM2 shedding inhibition in Jurkat-NFAT reporter cells (sTREM2 ELISA) [3]: 0.123 µg/mL | EC50, average X04 plaque intensity, human iPSC-derived microglia plaque assay (FIG. 24C) [4]: 500000 pM | EC50, total Abeta plaque intensity, human iPSC-derived microglia plaque assay (FIG. 24B) [4]: 120000 pM | binding result [5]: binds
B2: hPara.09.v2 Q100P (antibody, V domains shown)
VH: EVQLVESGGGLVQPGGSLKLSCATSGFPFSNVWLHWVRQASGKGPEWVAHIKAKSDNYATYYAESVKGRFTISRDDSKNTVYLQMNSLKTEDTAVYYCTDILEYWGQGTLVTVSS
VL: DVVMTQSPLSLPVTPGEPASISCRSSRSLLTSKGITSLYWYLQKPGQSPQLLIYRMSNLASGIPDRFSGSGSGTDFTLKISRVEAEDVGVYYCAQFLVYPYTFGPGTKVEIK
notes: Human IgG1 N297G in the cell assays; also called huPara.09.v2 Q100P; hPara.09 Q100P
EC50, survival of iPSC-derived microglia (FIG. 23E) [4]: 610 pM

binding result [5]: binds
B3: h3.10C2.v1 Q100P (antibody, V domains shown)
VH: EVQLVESGGGLVQPGGSLKLSCATSGFPFSNVWMHWVRQASGKGLEWIAHIKAKSDNYATYYAESVKGRFTISRDDSKTTIYLQMNSLKTEDTAVYYCTGLDYWGQGTTVTVSS
VL: B2 VL
notes: also called hu3.10C2.v1 Q100P

binding result [6]: binds
B4: control antibody 1.16B8 (antibody, mouse IgG2a, kappa, V domains shown)
VH: EVQLVESGGGLVQPGRSLKLSCAASGFTFSDSAMAWVRQAPKKGLEWVATIIYDTSSTYYRDSVKGRFTISRDNAKSTLYLQMDSLRSEDTATYYCALFGVDVMDAWGQGASVTVSS
VL: DIQMTQTPSSMPASLGERVTISCRASQGISNYLNWYQQKPDGTIKPLIYYTSNLQSGVPSRFSGSGSGTDYSLTISSLEPEDFAMYYCQQYDSSPWTFGGGTKLEIKR
notes: also called CTL; 1.116B8
